In paper PMC12048173:

Molecular target: Full-length Stigmatella aurantiaca bacteriophytochrome 2 (SaBphP2), Pr state (Stigmatella aurantiaca)
Experiment: cryo-EM structure; single-particle cryo-EM, Spotiton nanowire grid, 0.4 mg/ml, pre-illuminated with 740 nm light (pure Pr state); global resolution 6.0 Å; subunits fitted as rigid units, not refined

**Q.** For “Full-length Stigmatella aurantiaca bacteriophytochrome 2 (SaBphP2), Pr state (natural protein)”, which stoichiometry N is on record?
**A.** 2
